Here are results for 1 molecule from patent US7378098.

The target of the test is T1, CXC chemokine receptor 4 (CXCR4) (UniProt P61073 1-352, limits assumed).
T1 construct: whole, on cells; Both are human cell lines; also called CXCR4 receptor; SDF-1 receptor
Description: competition with 4 nM 125I-SDF-1 on CEM cells (FIG. 2C). How it is done:
The results are expressed as percentages of the maximal specific binding that was determined without competing ligand, and are the mean of three independent experiments.

Where no end group is shown, it is not given here.

T1 sequence (P61073 whole entry): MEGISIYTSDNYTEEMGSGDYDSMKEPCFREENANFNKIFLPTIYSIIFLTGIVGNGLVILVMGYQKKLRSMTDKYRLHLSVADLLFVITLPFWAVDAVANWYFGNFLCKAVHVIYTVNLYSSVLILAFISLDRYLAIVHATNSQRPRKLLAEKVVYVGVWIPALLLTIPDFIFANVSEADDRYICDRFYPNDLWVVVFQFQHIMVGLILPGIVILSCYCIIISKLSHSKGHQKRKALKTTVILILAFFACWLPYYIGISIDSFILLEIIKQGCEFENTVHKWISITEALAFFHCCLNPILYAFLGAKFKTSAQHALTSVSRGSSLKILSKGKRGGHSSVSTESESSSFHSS

B1: SDF-1(1-8)2-lysine bridge dimer (CTCE9904) (peptide)
peptide 1: KPVSLSYRK-NH2
peptide 2: KPVSLSYR
modifications: also: dimer: two KPVSLSYR chains bridged through alpha and epsilon amino groups of one lysinamide, lactam at chain A 9 at chain B 8 to a chain's C-terminus
notes: It is not known whether the bridging lysine is part of either listing entry; also called SDF-1 (1-8)2-lysine dimer
Turning to B1, the binding result is reported as “binds”.
